First the molecules themselves.
B5: Human IL-18BP (amino acids 31-194) (receptor)
chain: TPVSQTTTAATASVRSTKDPCPSQPPVFPAAKQCPALEVTWPEVEVPLNGTLSLSCVACSRFPNFSILYWLGNGSFIEHLPGRLWEGSTSRERGSTGTQLCKALVLEQLTPALHSTNFSCVLVDPEQVVQRHVVLAQLWAGLRATLPPTQEALPSSHSSPQQQGGLNDIFEAQKIEWHEHHHHHH
modifications: biotin on the AviTag (BirA ligase) where used biotinylated

In assay [1] the target is T1, Mouse IL-18BP (amino acids 31-194) (mouse, UniProt Q9Z0M9 29-193, biotin on the AviTag (BirA ligase)).
T1 construct: Secreted from Expi293 cells (H7 signal peptide); also called mIL-18BP
T1 sequence: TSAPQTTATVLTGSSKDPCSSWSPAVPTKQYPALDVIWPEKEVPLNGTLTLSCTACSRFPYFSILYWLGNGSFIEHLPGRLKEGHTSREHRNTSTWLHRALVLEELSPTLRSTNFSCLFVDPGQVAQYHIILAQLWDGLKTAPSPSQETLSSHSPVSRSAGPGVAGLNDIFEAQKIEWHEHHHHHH
The experiment in a line: SPR; end of the range tied to mA7 by Table 9. A general note: Surface plasmon resonance follows binding to a sensor surface in real time, without labels.

For assay [2], the target named is T2, Mouse IL-18Rα ectodomain (amino acids 19-329) (mouse, UniProt Q61098 19-329, biotin on the AviTag (BirA ligase)).
T2 construct: range 19-329; Secreted from Expi293 cells (H7 signal peptide); also called mIL-18Rα; Ra
T2 sequence: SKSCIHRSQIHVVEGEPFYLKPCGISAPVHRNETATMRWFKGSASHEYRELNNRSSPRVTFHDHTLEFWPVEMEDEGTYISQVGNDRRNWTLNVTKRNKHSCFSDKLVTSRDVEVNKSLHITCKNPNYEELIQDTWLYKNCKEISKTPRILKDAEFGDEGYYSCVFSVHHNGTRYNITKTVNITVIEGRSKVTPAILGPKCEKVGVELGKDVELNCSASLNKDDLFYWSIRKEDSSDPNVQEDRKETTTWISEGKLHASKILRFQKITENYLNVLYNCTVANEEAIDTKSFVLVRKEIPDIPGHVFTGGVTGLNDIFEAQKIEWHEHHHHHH
The experiment in a line: SPR; end of the range tied to mE8 by Table 9.

Assay [3] has as its target T1, Mouse IL-18BP (amino acids 31-194). The experiment in a line: SPR; KD ratio normalized to WT IL-18; lower end taken as mE8 (lowest ratio in Table 9).
For assay [4] the target is unchanged. In words: SPR; end of the range tied to mC1 by Table 9.
The target is the same in assay [5]. In words: SPR. As to the method:
Experiments were conducted using a Biacore T100 and carried out at 25° C. Biotinylated IL-18Rα or IL-18BP were immobilized onto a Biacore biotin capture chip (Series S CAP sensor chip, GE Healthcare) to yield an Rmax of ~50 RU (IL-18Rα) or ~10 RU (IL-18BP). Measurements were made with serial dilutions of the IL-18 variants in HEPES buffered Saline-P+ buffer (10 mM HEPES pH 7.4, 150 mM NaCl, 0.005% surfactant P20). The surface was regenerated by three 60-sec injections of regeneration buffer (¾ (v/v) 8 M guanidine hydrochloride with ¼ (v/v) 1 M sodium hydroxide). Experiments were performed in multiple channels simultaneously for increased observations. All data were analyzed with the Biacore T100 evaluation software version 2.0 with a 1:1 Langmuir binding model.
As the human and mouse interspecies cross-reactivity of IL-18 for IL-18Rα is poor, murine equivalents of the DR-IL-18 variants that could be used for studies in mice were created. Similar to the approach taken for hIL-18 above, a combinatorial library of mIL-18 variants randomizing a similar set of mIL-18Rα/mIL-18BP contact residues (Table 3) was created, yielding a library of 4 × 10⁸ transformants. Directed evolution was performed on this library similar to how it was performed with the human IL-18 library; the selection strategy is summarized in FIG. 10A.

Assay [6] deals with T3, Human Interleukin-18 (mature form), wild-type (human, UniProt Q14116 37-193).
T3 sequence: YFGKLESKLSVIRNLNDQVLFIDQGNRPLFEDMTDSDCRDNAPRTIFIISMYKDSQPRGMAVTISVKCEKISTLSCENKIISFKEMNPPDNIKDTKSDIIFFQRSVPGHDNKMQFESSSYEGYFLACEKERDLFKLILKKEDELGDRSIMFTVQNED
The experiment in a line: cell-based or functional assay.

The target of assay [7] is B5. The experiment in a line: on-yeast binding isotherm, flow cytometry. A general note: Flow cytometry measures light scatter and fluorescence of single cells or particles in a stream.

B1: mA7 (ligand)
chain: YFGRLHCTTAVIRNINDQVLFVDKRQPVFEDMTDIDQSASEPQTRLIIYAYGDNRVRGKAVTLSVKDSKMSTLSCKNKIISFEEMDPPENIDDIQSDLIFFQKRVPGHNKMEFESSLYEGHFLACQKEDDAFKLILKKKDENGDKSVMFTLTNLHQS
notes: Murine DR-IL-18 variant; recombinant with C-terminal hexahistidine tag in SPR; fusion and tag not written
In general, Kd refers to a measure of binding affinity in units of concentration. High values mean weaker binding, low ones tighter binding. With B1, binding in assay [1] was put at a Kd of 14 µM.

B2: mE8 (ligand)
chain: NFGRLHCTTAVIRNINDQVLFVDKRQPVFEDMTDIDQSASEPQTRLIIYVYTDGRRRGKAVTLSVKDSKMSTLSCKNKIISFEEMDPPENIDDIQSDLIFFQKKVPGHDKMEFESSLYEGHFLACQKEDDAFKLILKKKDENGDKSVMFTLTNLHQS
notes: as for B1
B2 showed an equilibrium dissociation constant (Kd) in assay [2] of 0.0017 µM. Besides, the “IL-18 BP:Ra Dissociation Constant Ratio” value in assay [3] stood at 9.3e+06.

B3: mC1 (ligand)
chain: NFGRLHCTTAVIRNINDQVLFVDKRQPVFEDMTDIDQSASEPQTRLIIYAYVDRRLRGKAVTLSVKDSKMSTLSCKNKIISFEEMDPPENIDDIQSDLIFFQKKVPGHNKMEFESSLYEGHFLACQKEDDAFKLILKKKDENGDKSVMFTLTNLHQS
notes: as for B1
B3 gave a Kd in assay [4] of 29 µM.

B4: mCS2 (ligand)
chain: HFGRLHCTTAVIRNINDQVLFVDKRQPVFEDMTDIDQSASEPQTRLIIYAYGDSRARGKAVTLSVKDSKMSTLSCKNKIISFEEMDPPENIDDIQSDLIFFQKRVPGHNKMEFESSLYEGHFLACQKEDDAFKLILKKKDENGDKSVMFTLTNLHQS
notes: Murine DR-IL-18 consensus variant; recombinant with C-terminal hexahistidine tag in SPR; fusion and tag not written
B4 had a Kd in assay [5] of 11 µM. In the case of B5, in assay [6], the “IC50 of recombinant IL-18BP on the IL-18 HEK-Blue reporter signal (hIL-18 fixed at 5 nM)” value was found to be 0.003 µM.

B6: hA8 (ligand)
chain: YFGKLESRLSVIRNLNDQVLFIDQGNRPLFEDMTDSDCRDNAPRTIFIISKYKDKQPRAQAVTISVKCEKISTLSCENKIISFKEMNPPDNIKDTKSDIIFFQRDVPGHKHKMQFESSSYEGYFLACEKERDLFKLILKKEDELGDRSIMFTIQNED
notes: Human DR-IL-18 variant; display fusion not written
One may read the EC50 as the midpoint of the concentration-response curve. Take B6: the EC50 in assay [7] is greater than 1 µM.

B7: hCS2 (ligand)
chain: YFGKLESKLSVIRNLNDQVLFIDQGNRPLFEDMTDSDCRDNAPRTIFIISTYKDKQPRAKAVTISVKCEKISTLSCENKIISFKEMNPPDNIKDTKSDIIFFQRDVPGHKHKMQFESSSYEGYFLACEKERDLFKLILKKEDELGDRSIMFTIQNED
notes: Human DR-IL-18 consensus variant; E. coli recombinant with C-terminal hexahistidine tag in SPR; fusion and tag not written
As to B7, the concentration giving a half-maximal response (EC50) in assay [7] was greater than 1 µM.

The values above are taken from US20230321192A1 (published 2023).
